Reference: publication PMC11294625, “The kinesin-3 KIF1C undergoes liquid-liquid phase separation for accumulation of specific transcripts at the cell periphery”

What was measured:
[1] = target: T1, KIF1C(CC4+IDR)-mNG (Homo sapiens, UniProt O43896 785-1103); test: in vitro condensate recruitment (fluorescence microscopy); 15-60 nM RNA, 100 nM protein, 100 mM NaCl; selectively enriched in condensates; 100 nM KIF1C(CC4+IDR)-mNG in 100 mM NaCl buffer, no crowding agent; pH and temperature of the assay not given in the material; settings: protein: recombinant; tags: C-terminal mNeonGreen; His-SUMO removed by TEV; chain copies: 2; label: 5'-Cy5; single strand
T1 sequence: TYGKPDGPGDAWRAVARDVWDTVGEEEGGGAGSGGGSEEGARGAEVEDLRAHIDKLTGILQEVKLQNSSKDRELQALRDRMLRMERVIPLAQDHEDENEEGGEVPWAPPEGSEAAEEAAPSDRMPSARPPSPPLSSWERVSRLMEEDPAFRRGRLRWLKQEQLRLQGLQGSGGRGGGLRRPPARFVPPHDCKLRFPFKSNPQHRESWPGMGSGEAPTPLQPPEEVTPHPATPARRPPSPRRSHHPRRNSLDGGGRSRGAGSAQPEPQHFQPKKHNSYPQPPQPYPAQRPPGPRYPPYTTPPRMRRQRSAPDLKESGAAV

[2] = target: T1, KIF1C(CC4+IDR)-mNG; test: in vitro condensate recruitment (fluorescence microscopy); 120-600 nM RNA, 100 nM protein, 100 mM NaCl; enriched (condensates inhibited at uM RNA); 100 nM KIF1C(CC4+IDR)-mNG in 100 mM NaCl buffer, no crowding agent; pH and temperature of the assay not given in the material; settings: protein: recombinant; tags: C-terminal mNeonGreen; His-SUMO removed by TEV; chain copies: 2; label: 5'-Cy5; single strand

| Binder | binding result [1] | binding result [2] |
| --- | --- | --- |
| GUGUGUGUGUGU (ssRNA, methylation at each nucleotide (printed mG/mU, probably 2'-O-methyl)) [GU-rich RNA oligo, Cy5-(GU)6] | binds | – |
| AAAAAAAAAAAAA (ssRNA, methylation at each nucleotide (printed mA, probably 2'-O-methyl)) [polyA RNA oligo, Cy5-A13] | – | binds |
